According to article PMC7534798:

Experiments:
[1] = biological target: T1, SPRTN-EQ (human, UniProt Q9H040 1-489, E112Q); assay: EMSA
T1 sequence: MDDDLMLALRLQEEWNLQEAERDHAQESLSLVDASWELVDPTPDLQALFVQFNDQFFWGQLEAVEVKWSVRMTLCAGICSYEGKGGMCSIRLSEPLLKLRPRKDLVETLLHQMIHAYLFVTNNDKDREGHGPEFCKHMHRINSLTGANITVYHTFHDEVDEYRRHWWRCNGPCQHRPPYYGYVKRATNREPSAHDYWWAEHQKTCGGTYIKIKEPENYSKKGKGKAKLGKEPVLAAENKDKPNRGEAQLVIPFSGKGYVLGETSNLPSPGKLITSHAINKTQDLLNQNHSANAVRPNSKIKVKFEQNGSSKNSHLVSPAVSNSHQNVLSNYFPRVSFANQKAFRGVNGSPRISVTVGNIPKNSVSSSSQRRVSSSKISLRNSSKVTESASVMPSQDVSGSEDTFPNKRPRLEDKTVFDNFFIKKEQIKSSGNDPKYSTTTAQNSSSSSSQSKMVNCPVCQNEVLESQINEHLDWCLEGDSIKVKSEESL

[2] = biological target: T2, SPRTN ZBD-BR (human, UniProt Q9H040 151-245); assay: NMR
T2 sequence: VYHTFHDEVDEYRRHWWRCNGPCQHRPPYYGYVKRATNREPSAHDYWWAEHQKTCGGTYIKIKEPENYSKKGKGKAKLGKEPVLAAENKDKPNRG

[3] = biological target: T3, SPRTN ZBD (human, UniProt Q9H040 151-215); assay: NMR
T3 sequence: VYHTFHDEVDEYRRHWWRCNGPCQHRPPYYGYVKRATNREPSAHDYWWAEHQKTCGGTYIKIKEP

GATGTCCTAGCAAGG (structured_DNA) [15-mer hairpin (oJS_106)]: binds [1].

TCCAGTGCCTTGCTAGGACATCTTTGCCCA (ssDNA, T1 is SH-C9-dT crosslinked to protein G; 3' phosphate) [5' DPC ss (X1)]: binds [1].

ACCAGTGCCTTGCTTGGACATCTTTGCCCA (ssDNA, T15 is SH-C9-dT crosslinked to protein G; 3' phosphate) [internal DPC ss (X15)]: binds [1].

AAAAAAAAAAAAAAA (ssDNA) [poly(dA) 15-mer]: binds [2]; binds [3].

B1: dsDNA DPC (C3A11XA12C3 + 30-mer) (dsDNA)
DNA 1: CCCAAAAAAAAAAATAAAAAAAAAAAACCC
DNA 2: GGGTTTTTTTTTTTTATTTTTTTTTTTGGG
modifications: T15 is SH-C9-dT crosslinked to protein G; 3' phosphate on strand 1
B1: binds [1].

ACCAGTGCCTTGCTAGGACATCTTTGCCCT (ssDNA, T30 is SH-C9-dT crosslinked to protein G; 3' phosphate) [3' DPC ss (X30)]: binds [1].

B2: internal DPC dsDNA (X15) (dsDNA)
DNA 1: ACCAGTGCCTTGCTTGGACATCTTTGCCCA
DNA 2: TGGGCAAAGATGTCCAAGCAAGGCACTGGT
modifications: T15 is SH-C9-dT crosslinked to protein G; 3' phosphate on strand 1
B2: binds [1].

B3: ss/dsDNA junction DPC (C3A11XA12C3 + 15-mer) (mixed)
DNA 1: B1 DNA 1
DNA 2: GGGTTTTTTTTTTTT
modifications: T15 is SH-C9-dT crosslinked to protein G; 3' phosphate on strand 1
B3: binds [1].
